Laboratory results reported in patent US20260146071A1, “CCR2 INHIBITORS AND METHODS OF USE” (ORION BIOTECHNOLOGY USA Corp., priority 2022, published 2026).
pIC50: −log10 of the molar value. Like-named read-outs stand apart in the source and are kept apart here. Where no end group is shown, it is not given here. [ ]: non-standard residue; d: D form. Nle = CCCC[C@H](N)C(=O)O

Molecular target: T1, CCR2 (Homo sapiens, UniProt P41597)
T1 construct: endogenous in cells; host or cells: THP-1
T1 sequence (P41597 1-360 isoform P41597-2): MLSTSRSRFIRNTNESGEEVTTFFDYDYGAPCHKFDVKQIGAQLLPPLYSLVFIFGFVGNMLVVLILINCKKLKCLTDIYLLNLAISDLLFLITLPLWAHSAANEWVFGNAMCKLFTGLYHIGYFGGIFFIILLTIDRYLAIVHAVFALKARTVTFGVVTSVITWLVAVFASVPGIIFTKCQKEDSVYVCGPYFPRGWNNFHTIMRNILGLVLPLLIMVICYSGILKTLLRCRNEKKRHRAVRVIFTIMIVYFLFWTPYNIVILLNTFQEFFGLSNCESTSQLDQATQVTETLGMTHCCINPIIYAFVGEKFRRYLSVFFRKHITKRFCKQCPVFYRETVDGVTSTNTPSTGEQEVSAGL
Assay: CCR2 inhibitory potency assay, calcium flux method, THP-1 cells stimulated with 100 nM CCL2
Format: cell-based
Details: for pIC50: CCR2 inhibition, read-out: mean IC50; for IC50: FIG. 5, calcium flux, THP-1 cells, read-out: IC50 (compiled data from four experiments, mean pIC50) (converted); for fold less potent than 1P2-CCL2: compiled data from four experiments
Protocol: CCR2 inhibitory potency assay was determined using the calcium flux method.
Ca^2+ flux measurements were performed using an FDSS micro-cell device ([…]). On the day of the experiment, THP-1 cells were seeded 20000 cells/well) to wells of black-walled clear-bottom 384-well plates.
THP-1 cells were loaded with a calcium-sensitive fluorescent dye (Screen Quest™ Fluo-8 No Wash Calcium Assay Kit, AAT Bioquest) according to the manufacturer's instructions, then a first addition of either test sample dilutions or vehicle alone were added. 5 minutes later, cells were stimulated with 100 nM CCL2.

| pIC50 (Table 4) | Molecule | other results |
| --- | --- | --- |
| 8.78 | CCL2 variant, N-terminal FP(Nle)DGWGPGV (SEQ ID NO: 144), human CCL2 11-76 Met64Nle core (FP[Nle]DGWGPGV; also: followed by human CCL2 11-76 core with Met64Nle) [4P24-CCL2] | – |
| 8.57 | CCL2 variant, N-terminal FP(Nle)DGWGSRV (SEQ ID NO: 102), human CCL2 11-76 Met64Nle core (FP[Nle]DGWGSRV; also: followed by human CCL2 11-76 core with Met64Nle) [4P2-CCL2] | – |
| 8.78 | CCL2 variant, N-terminal FP(Nle)DGWRGGV (SEQ ID NO: 116), human CCL2 11-76 Met64Nle core (FP[Nle]DGWRGGV; also: followed by human CCL2 11-76 core with Met64Nle) [4P9-CCL2] | – |
| 8.99 | CCL2 variant, N-terminal FP(Nle)DGWRPRT (SEQ ID NO: 142), human CCL2 11-76 Met64Nle core (FP[Nle]DGWRPRT; also: fused to human CCL2 11-76 core with Met64Nle) [4P23-CCL2] | – |

Continued, molecule first:

| Molecule | pIC50 (Table 4) | other results |
| --- | --- | --- |
| CCL2 variant, N-terminal FTNPTWKPST (SEQ ID NO: 90), human CCL2 11-76 Met64Nle core (not fully specified (C-terminus); also: followed C-terminally by human CCL2 11-76 core with Met64Nle) [3P15-CCL2] | 8.82 | – |
| CCL2 variant, N-terminal FTNPTWDTGT (SEQ ID NO: 96), human CCL2 11-76 Met64Nle core (not fully specified (C-terminus); also: followed C-terminally by human CCL2 11-76 core with Met64Nle) [3P21-CCL2] | 8.89 | – |
| CCL2 variant, N-terminal WRPHWSAPVT (SEQ ID NO: 25), human CCL2 Met64Nle core [CCL2-M64Nle-1P3] | – | pIC50 (Table 3): 7.48 |
| CCL2 variant, N-terminal FTNPTWDPFT (SEQ ID NO: 95), human CCL2 11-76 Met64Nle core [3P20-CCL2] | 9.14 | – |
| CCL2 variant, N-terminal VPDWSQAPVT (SEQ ID NO: 18), human CCL2 Met64Nle core [CCL2-M64Nle-1P22] | – | pIC50 (Table 3): 7.82 |
| CCL2 variant, N-terminal FTNPTWDRFT (SEQ ID NO: 87), human CCL2 11-76 Met64Nle core (not fully specified (C-terminus); also: followed C-terminally by human CCL2 11-76 core with Met64Nle) [3P12-CCL2] | 9.20 | – |
| Cc1cnc(C(=O)c2ncnc3[nH]ccc23)c(NS(=O)(=O)c2ccc(Cl)c(C(F)(F)F)c2)c1 [CCX-140, reference compound] | – | IC50: 24 nM; fold less potent than 1P2-CCL2: 14.12 fold |
| CCL2 variant, N-terminal FTNPTWSGVT (SEQ ID NO: 81), human CCL2 11-76 Met64Nle core (not fully specified (C-terminus); also: followed C-terminally by human CCL2 11-76 core with Met64Nle) [3P6-CCL2] | 8.90 | – |
| CCL2 variant, N-terminal AFSIMQAPVT (SEQ ID NO: 15), human CCL2 Met64Nle core [CCL2-M64Nle-1P8] | – | pIC50 (Table 3): 7.92 |
| CC(=O)N[C@@H]1C[C@H](NC(C)(C)C)CC[C@@H]1N1CC[C@H](Nc2ncnc3cc(C(C)(C)C)nn23)C1=O [BMS-813160, reference compound] | – | IC50: 9.8 nM; fold less potent than 1P2-CCL2: 5.76 fold |
| CCL2 variant, N-terminal TPGHYRAPVT (SEQ ID NO: 39), human CCL2 Met64Nle core [CCL2-M64Nle-2P3] | – | pIC50 (Table 3): 6.65 |
